Measured values published in publication PMC4794675 (Journal of Virology, 2016).

Columns and labels:
[1] = target: T1, BSA2 (glutaraldehyde-self-conjugated BSA) (Bos taurus, UniProt P02769); experiment: ELISA; conditions: both partners purified
T1 construct: bovine serum albumin; also called BSA2 control; source: BSA self-conjugated with 0.2% glutaraldehyde, dialysed

[2] = target: T2, Soluble E2 (sE2), amino acids 384 to 661 of HCV genotype 1a strain H77 (Hepatitis C virus genotype 1a, H77, UniProt P27958); experiment: SPR; Biacore 3000, sE2 immobilised on CM5 by amine coupling; MAbs or Fabs injected; HBS pH 7.2, 25°C, 20 μl/min; 1:1 Langmuir fit; conditions: both partners purified
T2 construct: source: High Five insect cells, recombinant baculovirus, secreted, purified (Ni-nitrilotriacetic acid chromatography)

[3] = target: T3, sE2 expressed in mammalian cells (HEK293T lysate) (Hepatitis C virus; strain of this …); experiment: ELISA; conditions: one partner purified
T3 construct: also called mammalian cell-expressed sE2; source: HEK293T, transfected, in clarified lysate

[4] = target: T4, full-length (FL) E2 protein (Hepatitis C virus; strain of this …); experiment: ELISA; conditions: one partner purified
T4 construct: source: HEK293T, transfected, in clarified lysate

[5] = target: T5, E1E2 heterodimer (E1E2 glycoprotein) (Hepatitis C virus; strain of this …); experiment: ELISA; conditions: one partner purified
T5 construct: source: HEK293T, transfected, in clarified lysate

T2 sequence (P27958 384-661): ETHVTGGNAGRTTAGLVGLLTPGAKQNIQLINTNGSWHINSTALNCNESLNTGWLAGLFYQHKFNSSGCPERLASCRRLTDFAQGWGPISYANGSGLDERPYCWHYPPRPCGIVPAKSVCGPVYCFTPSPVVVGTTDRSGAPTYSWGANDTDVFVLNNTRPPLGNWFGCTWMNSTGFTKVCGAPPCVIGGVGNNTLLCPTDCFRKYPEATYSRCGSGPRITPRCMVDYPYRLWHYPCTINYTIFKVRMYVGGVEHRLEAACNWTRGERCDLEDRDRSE
T1 sequence (P02769 25-607): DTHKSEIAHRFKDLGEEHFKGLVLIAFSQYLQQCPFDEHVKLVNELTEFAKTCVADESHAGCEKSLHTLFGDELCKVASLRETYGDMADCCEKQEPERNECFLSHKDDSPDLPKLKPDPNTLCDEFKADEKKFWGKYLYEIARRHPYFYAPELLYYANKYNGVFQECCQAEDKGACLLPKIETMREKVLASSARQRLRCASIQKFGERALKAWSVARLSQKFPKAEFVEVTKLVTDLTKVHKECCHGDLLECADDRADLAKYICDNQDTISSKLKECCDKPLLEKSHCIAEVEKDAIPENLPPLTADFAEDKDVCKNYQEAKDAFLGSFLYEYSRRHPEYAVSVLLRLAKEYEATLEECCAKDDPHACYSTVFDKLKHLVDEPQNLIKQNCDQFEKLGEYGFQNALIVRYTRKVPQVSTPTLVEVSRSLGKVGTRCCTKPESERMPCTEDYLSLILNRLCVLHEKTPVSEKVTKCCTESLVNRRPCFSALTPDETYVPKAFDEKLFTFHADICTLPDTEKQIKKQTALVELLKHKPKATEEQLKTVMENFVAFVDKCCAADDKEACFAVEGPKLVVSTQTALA
T4 sequence (P27958 384-746): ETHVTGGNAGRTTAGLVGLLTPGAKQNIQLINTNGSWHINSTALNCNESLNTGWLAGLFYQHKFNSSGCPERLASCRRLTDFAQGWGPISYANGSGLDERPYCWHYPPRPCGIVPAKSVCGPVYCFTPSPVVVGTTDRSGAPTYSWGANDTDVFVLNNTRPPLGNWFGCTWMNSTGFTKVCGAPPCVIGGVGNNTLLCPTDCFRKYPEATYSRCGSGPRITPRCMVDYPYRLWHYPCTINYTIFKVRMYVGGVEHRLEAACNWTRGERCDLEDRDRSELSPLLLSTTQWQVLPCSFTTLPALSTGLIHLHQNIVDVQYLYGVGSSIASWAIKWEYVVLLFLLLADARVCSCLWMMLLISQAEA

Row | Binder | binding result [1] | Kd [2] | koff [2] | kon [2] | binding result [3] | binding result [4] | binding result [5]
1 | MAb C2 (mouse monoclonal antibody against C-epitope I) (antibody, V domains shown, source: also used as hybridoma supernatant) VH: EVQLQQPGAELVRPGGSVKLSCKASGYSFTTYWMNWVKQRPGQGLEWIGMIQPSDSETRLNQKFKDKATLTLDRSSSTVYMQLSSPTSDDSAVYYCARTGRGDAWLTYWGQGTSVTVSS VL: NIVLTQSPVSLAVSLGQRATISCRASKSVSTSGYSYMHWYQQKPGQPPRLLLYLGSNLESGVPARFSGSGSGTDFTLNIHPVEEEDAATYYCQHIRELTRSFGGGTKLEIK | no binding | 49.8 nM | 0.000848 s⁻¹ | 18800 M⁻¹ s⁻¹ | – | – | –
2 | MAb AP33 (broadly neutralizing mouse monoclonal antibody) (antibody, V domains shown) VH: EVQLQESGPSLVKPSQTLSLTCSVTGDSITSGYWNWIRKFPGNKLEYMGYISYSGSTYYNLSLRSRISITRDTSKNQYYLQLNSVTTEDTATYYCALITTTTYAMDYWGQGTSVTVSS VL: NIVLTQSPVSLAVSLGQRATISCRASESVDGYGNSFLHWFQQKPGQPPKLLIYLASNLNSGVPARFSGSGSRTDFTLTIDPVEADDAATYYCQQNNVDPWTFGGGTKLEIK | – | 0.142 nM | 6.4e-05 s⁻¹ | 649000 M⁻¹ s⁻¹ | binds | binds | binds
3 | Fab fragment of the C2 antibody (Fab, V domains shown, source: papain digestion of purified IgG; Fc removed on protein G, gel filtration) VH: EVQLQQPGAELVRPGGSVKLSCKASGYSFTTYWMNWVKQRPGQGLEWIGMIQPSDSETRLNQKFKDKATLTLDRSSSTVYMQLSSPTSDDSAVYYCARTGRGDAWLTYWGQGTSVTVSS VL: NIVLTQSPVSLAVSLGQRATISCRASKSVSTSGYSYMHWYQQKPGQPPRLLLYLGSNLESGVPARFSGSGSGTDFTLNIHPVEEEDAATYYCQHIRELTRSFGGGTKLEIK | – | 301 nM | 0.00463 s⁻¹ | 12800 M⁻¹ s⁻¹ | – | – | –
4 | Fab fragment of AP33 (Fab, V domains shown, source: papain digestion of purified IgG; Fc removed on protein G, gel filtration) VH: EVQLQESGPSLVKPSQTLSLTCSVTGDSITSGYWNWIRKFPGNKLEYMGYISYSGSTYYNLSLRSRISITRDTSKNQYYLQLNSVTTEDTATYYCALITTTTYAMDYWGQGTSVTVSS VL: NIVLTQSPVSLAVSLGQRATISCRASESVDGYGNSFLHWFQQKPGQPPKLLIYLASNLNSGVPARFSGSGSRTDFTLTIDPVEADDAATYYCQQNNVDPWTFGGGTKLEIK | – | 0.72 nM | 0.000147 s⁻¹ | 230000 M⁻¹ s⁻¹ | – | – | –
